Five variants from paper PMC4643051 can be followed below.

B1: unnamed (parent)
chain 1: DSGCVVSWKNKELKCGSGIFITDNVHTWTEQYKFQPESPSKLASAIQKAHEEGICGIRSVTRLENLMWKQITPELNHILSENEVKLTIMTGDIKGIMQAGKRSLRPQPTELKYSWKTWGKAKMLSTESHNQTFLIDGPETAECPNTNRAWNSLEVEDYGFGVFTTNIWLKLKEKQDVFCDSKLMSAAIKDNRAVHADMGYWIESALNDTWKIEKASFIEVKNCHWPKSHTLWSNGVLESEMIIPKNLAGPVSQHNYRPGYHTQITGPWHLGKLEMDFDFCDGTTVVVTEDCGNRGPSLRTTTASGKLITEWCCRSCTLPPLRYRGEDGCWYGMEIRPLKEKEENLVNSLVTA
chain 2: FHLTTRNGEPHMIVSRQEKGKSLLFKTEDGVNMCTLMAMDLGELCEDTITYKCPLLRQNEPEDIDCWCNSTSTWVTYGTCTTMGEHRRQKRSVALVPHVGMGLETRTETWMSSEGAWKHVQRIETWILRHPGFTMMAAILAYTIGTTHFQRALIFILLTAVTPSMT

In this assay the parent is B1. The conditions noted are these: with partner chain of the complex shown;; read off a plot.
Consider chain 1 W115A, for which the ratio to parent was 0.45 fold of WT.

For the variant chain 1 D180A, the ratio to parent was 1.5 fold of WT.

As to chain 1 S114A, the ratio to parent was 0.27 fold of WT.

For the variant chain 1 T117A, the ratio to parent was 1.5 fold of WT.

Turning to chain 1 T301A, the ratio to parent is 1.7 fold of WT.
